This series deals with the molecule itself. The experiment in a line: cryo-EM structure; RbcL-Raf1 supercomplex co-expressed with GroES/EL in E. coli, purified by Ni-IMAC and Superdex 200; 1.2 mg/mL on Quantifoil grids; 200 kV Tecnai F20; 16,022 particles; 4.28 Å.

The values below come from paper PMC7382273, “Rubisco accumulation factor 1 (Raf1) plays essential roles in mediating Rubisco assembly and carboxysome biogenesis” (Proceedings of the National Academy of Sciences of the …, 2020).

The stoichiometry N is the number of molecules, sites or subunits per partner or assembly.

B1: Rubisco large subunit RbcL (Synechococcus elongatus PCC7942), recombinant, in the RbcL-Raf1 supercomplex (natural protein, UniProt Q31NB3 1-472, looked up)
chain: MPKTQSAAGYKAGVKDYKLTYYTPDYTPKDTDLLAAFRFSPQPGVPADEAGAAIAAESSTGTWTTVWTDLLTDMDRYKGKCYHIEPVQGEENSYFAFIAYPLDLFEEGSVTNILTSIVGNVFGFKAIRSLRLEDIRFPVALVKTFQGPPHGIQVERDLLNKYGRPMLGCTIKPKLGLSAKNYGRAVYECLRGGLDFTKDDENINSQPFQRWRDRFLFVADAIHKSQAETGEIKGHYLNVTAPTCEEMMKRAEFAKELGMPIIMHDFLTAGFTANTTLAKWCRDNGVLLHIHRAMHAVIDRQRNHGIHFRVLAKCLRLSGGDHLHSGTVVGKLEGDKASTLGFVDLMREDHIEADRSRGVFFTQDWASMPGVLPVASGGIHVWHMPALVEIFGDDSVLQFGGGTLGHPWGNAPGATANRVALEACVQARNEGRDLYREGGDILREAGKWSPELAAALDLWKEIKFEFETMDKL
notes: RbcL, large subunit of ribulose-1,5-bisphosphate carboxylase/oxygenase, Synechococcus elongatus PCC7942, gene synpcc7942_1426 amplified from genomic DNA; The complex was captured on Ni-IMAC as a 'His-fusion complex'; also called RbcL8; RbcL8 core; source: E. coli BL21 DE3, co-expressed with Raf1 (pET19b-RbcL-Raf1) and GroES/EL, purified as a complex (Ni-IMAC, Superdex 200)
As for B1, the “stoichiometry N” value is 8.

B2: Rubisco accumulation factor 1 (Raf1) (Synechococcus elongatus PCC7942), recombinant (natural protein, UniProt Q31Q05 1-356, looked up)
chain: MREFTPTTLSEEERQELLGQLRRKEGRWLAWARACQTLLKNGLNPQTLFEATGFEPIQQNQITVAMQVYDSILRQDPPAHVRETYQEWGSDLLYELRELDQEQRSLCAQLALERKLDADQIREVAKATKDFCRLPKQPENFDRHPGDAVAHQCWRLAQERTDLTERSRLIARGLQFAQSAGARALIEALLLDLSGVPSRKPPMLPIYRLETEEDLPRLLPFAGTLPLSSSQIEAIAAVEAEGPFGLVSSPQGQQWLALPGWQAILTAEDPIACLEQIDRLPNAPEGPTEAVVLVVDRADRDWDADHFFLVEQAEGARIQWSPSAIAAPILGRLVLILRPKRVLDEAAIATPWQFEE
notes: Raf1, Rubisco accumulation (assembly) factor 1, Synechococcus elongatus PCC7942, gene synpcc7942_0833 amplified from genomic DNA; N-terminal α-helical domain (Raf1α), flexible linker, C-terminal β-sheet dimerization domain (Raf1β); Only the Raf1α domains are modelled in PDB 6SMH; Raf1β could not be resolved; Four Raf1 dimers (eight chains) sit on one RbcL8 core; also called Rubisco assembly …
Consider B2, for which the “stoichiometry N” value came out at 2.
